Measurements taken from US20180356429A1.

Tests used:
[1] = target: Recombinant human IL-13 (R&D Systems, MN, catalog no. 213-ILB/CF) (human) (UniProt P35225); test: sandwich pair screen, negative (blank) signal, binder is detection Ab; capture Ab 228B/C
[2] = target: Recombinant human IL-13 (R&D Systems, MN, catalog no. 213-ILB/CF) (human) (UniProt P35225); test: sandwich pair screen, negative (blank) signal, binder is detection Ab; capture Ab 32116
[3] = target: Recombinant human IL-13 (R&D Systems, MN, catalog no. 213-ILB/CF) (human) (UniProt P35225); test: sandwich pair screen, negative (blank) signal, binder is detection Ab; capture Ab MILR1444A
[4] = target: Recombinant human IL-13 (R&D Systems, MN, catalog no. 213-ILB/CF) (human) (UniProt P35225); test: sandwich pair screen, negative (blank) signal, binder is detection Ab; capture Ab 8C11
[5] = target: Recombinant human IL-13 (R&D Systems, MN, catalog no. 213-ILB/CF) (human) (UniProt P35225); test: sandwich pair screen, negative (blank) signal, binder is detection Ab; capture Ab 11H4
[6] = target: Recombinant human IL-13 (R&D Systems, MN, catalog no. 213-ILB/CF) (human) (UniProt P35225); test: sandwich pair screen, 100 pg/mL recombinant IL-13, binder is detection Ab; capture Ab 14C9
[7] = target: Recombinant human IL-13 (R&D Systems, MN, catalog no. 213-ILB/CF) (human) (UniProt P35225); test: sandwich pair screen, 100 pg/mL recombinant IL-13, binder is detection Ab; capture Ab 228B/C
[8] = target: Recombinant human IL-13 (R&D Systems, MN, catalog no. 213-ILB/CF) (human) (UniProt P35225); test: sandwich pair screen, 100 pg/mL recombinant IL-13, binder is detection Ab; capture Ab 11H4
[9] = target: Recombinant human IL-13 (R&D Systems, MN, catalog no. 213-ILB/CF) (human) (UniProt P35225); test: sandwich pair screen, 100 pg/mL recombinant IL-13, binder is detection Ab; capture Ab MILR1444A
[10] = target: Recombinant human IL-13 (R&D Systems, MN, catalog no. 213-ILB/CF) (human) (UniProt P35225); test: sandwich pair screen, 100 pg/mL recombinant IL-13, binder is detection Ab; capture Ab 4D7
[11] = target: Recombinant human IL-13 (R&D Systems, MN, catalog no. 213-ILB/CF) (human) (UniProt P35225); test: sandwich pair screen, negative (blank) signal, binder is detection Ab; capture Ab 14C9
[12] = target: Recombinant human IL-13 (R&D Systems, MN, catalog no. 213-ILB/CF) (human) (UniProt P35225); test: sandwich pair screen, negative (blank) signal, binder is detection Ab; capture Ab 4D7
[13] = target: Recombinant human IL-13 (R&D Systems, MN, catalog no. 213-ILB/CF) (human) (UniProt P35225); test: sandwich pair screen, 100 pg/mL recombinant IL-13, binder is detection Ab; capture Ab 8C11
[14] = target: Recombinant human IL-13 (R&D Systems, MN, catalog no. 213-ILB/CF) (human) (UniProt P35225); test: sandwich pair screen, 100 pg/mL recombinant IL-13, binder is detection Ab; capture Ab 32116

Sequence of Recombinant human IL-13 (R&D Systems, MN, catalog no. 213-ILB/CF) (human) (P35225 other isoform, or with tags, fused parts or gaps): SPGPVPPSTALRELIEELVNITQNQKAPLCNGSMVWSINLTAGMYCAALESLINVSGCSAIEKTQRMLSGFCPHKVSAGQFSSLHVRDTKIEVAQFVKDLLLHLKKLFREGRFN

“MAB213 (R&D Systems, MN, Cat. No. MAB213) (antibody)” was tested. Which Assay Signal Neg (blank) [1] did it give?
Its Assay Signal Neg (blank) is 26.5.

And the Assay Signal Neg (blank) [2]?
The Assay Signal Neg (blank) was 17.2.

And the Assay Signal Neg (blank) [3]?
The Assay Signal Neg (blank) was 0.3.

And the Assay Signal Neg (blank) [4]?
Its Assay Signal Neg (blank) is 3.9.

And the Assay Signal Neg (blank) [5]?
The Assay Signal Neg (blank) was 23.2.

What about the Assay Signal Pos [6] of the same substance?
The Assay Signal Pos was 33.2.

And the Assay Signal Pos [7]?
The Assay Signal Pos was 52.7.

What about the Assay Signal Pos [8] of the same substance?
Its Assay Signal Pos is 2310.

And the Assay Signal Pos [9]?
The Assay Signal Pos was 47.2.

What about the Assay Signal Pos [10] of the same substance?
The Assay Signal Pos was 23.6.

What about the Assay Signal Neg (blank) [11] of the same substance?
The Assay Signal Neg (blank) was 30.

And the Assay Signal Neg (blank) [12]?
Its Assay Signal Neg (blank) is 21.7.

What about the Assay Signal Pos [13] of the same substance?
Its Assay Signal Pos is 4.1.

And the Assay Signal Pos [14]?
Its Assay Signal Pos is 18.2.
